For the series, the target named is FANCD2 (Homo sapiens, UniProt Q9BXW9 1-1451). The experiment in a line: EMSA; 200 ng protein; 20 mM HEPES pH 7.6, 5 mM EDTA, 1 mM DTT, 150 mM KCl, 50 mM (NH4)2SO4, 1% Tween-20; 20 min, room temperature; native 4% PAGE. Conditions: protein: recombinant; tags: His6 removed by thrombin; label: 32P; blunt (duplex implied; only one strand printed for EMSA). A general note: Mobility shift assays separate free from complexed probe on a gel.
Sequence of FANCD2 (Q9BXW9 whole entry): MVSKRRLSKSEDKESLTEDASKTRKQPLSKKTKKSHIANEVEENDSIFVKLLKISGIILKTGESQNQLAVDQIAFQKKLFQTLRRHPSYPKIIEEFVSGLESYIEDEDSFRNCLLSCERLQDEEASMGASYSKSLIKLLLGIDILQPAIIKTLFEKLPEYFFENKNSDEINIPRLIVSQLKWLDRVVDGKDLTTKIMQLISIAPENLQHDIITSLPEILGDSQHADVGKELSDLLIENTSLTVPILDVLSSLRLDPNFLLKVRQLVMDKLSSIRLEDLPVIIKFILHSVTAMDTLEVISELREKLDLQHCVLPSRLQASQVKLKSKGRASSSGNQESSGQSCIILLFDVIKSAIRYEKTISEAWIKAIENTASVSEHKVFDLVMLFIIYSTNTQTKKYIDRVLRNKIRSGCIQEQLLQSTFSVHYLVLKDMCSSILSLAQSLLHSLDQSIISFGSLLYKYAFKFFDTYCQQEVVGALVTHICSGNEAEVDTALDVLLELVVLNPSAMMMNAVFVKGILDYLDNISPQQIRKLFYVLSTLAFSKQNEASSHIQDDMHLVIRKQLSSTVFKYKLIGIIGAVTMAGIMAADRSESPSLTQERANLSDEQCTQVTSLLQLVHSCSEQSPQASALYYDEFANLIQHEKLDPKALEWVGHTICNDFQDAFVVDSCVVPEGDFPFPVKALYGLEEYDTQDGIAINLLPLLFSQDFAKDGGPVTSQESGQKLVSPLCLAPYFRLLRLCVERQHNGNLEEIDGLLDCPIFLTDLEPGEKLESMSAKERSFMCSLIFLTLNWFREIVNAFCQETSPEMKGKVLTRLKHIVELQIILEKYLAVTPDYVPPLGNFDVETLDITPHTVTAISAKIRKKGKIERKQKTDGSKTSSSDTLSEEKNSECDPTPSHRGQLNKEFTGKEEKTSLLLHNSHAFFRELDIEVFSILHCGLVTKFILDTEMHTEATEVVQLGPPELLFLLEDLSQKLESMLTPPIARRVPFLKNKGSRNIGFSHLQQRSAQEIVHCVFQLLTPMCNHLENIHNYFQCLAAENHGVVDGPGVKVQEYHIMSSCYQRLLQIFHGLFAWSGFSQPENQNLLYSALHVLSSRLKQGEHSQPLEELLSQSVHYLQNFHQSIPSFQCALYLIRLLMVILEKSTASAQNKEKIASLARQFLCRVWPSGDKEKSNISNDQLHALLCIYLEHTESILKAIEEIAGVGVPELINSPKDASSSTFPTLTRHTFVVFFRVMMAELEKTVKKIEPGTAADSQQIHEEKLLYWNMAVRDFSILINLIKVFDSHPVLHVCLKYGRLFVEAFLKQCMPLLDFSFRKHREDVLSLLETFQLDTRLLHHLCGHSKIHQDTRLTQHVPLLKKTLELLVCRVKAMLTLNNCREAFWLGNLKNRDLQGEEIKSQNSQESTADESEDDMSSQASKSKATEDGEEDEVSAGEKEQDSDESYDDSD

B1: kB1 (dsDNA)
DNA 1: GAGTATGGGGACCCCCCCTTAA
DNA 2: TTAAGGGGGGGTCCCCATACTC
Take B1: the binding result is reported as “binds”.

For the origin of these results see PMC3166142, “Direct Inhibition of TNF-α Promoter Activity by Fanconi Anemia Protein FANCD2”.
